Test results: PMC2172719 (The Journal of Cell Biology, 2003)

T1: His-Ubc13 (yeast, UniProt P52490 1-153)
T1 sequence: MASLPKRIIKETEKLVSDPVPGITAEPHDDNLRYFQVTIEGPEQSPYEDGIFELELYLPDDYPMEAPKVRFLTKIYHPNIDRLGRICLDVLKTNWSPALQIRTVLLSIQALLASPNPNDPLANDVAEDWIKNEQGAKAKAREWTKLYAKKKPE


How the values were obtained:
SEC = molecular target: the molecule itself; test: SEC
His-Ubc13 = molecular target: T1, His-Ubc13; test: SEC

| Binder | stoichiometry N (SEC) | binding result (His-Ubc13) |
| --- | --- | --- |
| His-tagged p97 ΔN (domain or fragment) not shown | 6 |  |
| His-Mms2 (natural protein) MSKVPRNFRLLEELEKGEKGFGPESCSYGLADSDDITMTKWNGTILGPPHSNHENRIYSLSIDCGPNYPDSPPKVTFISKINLPCVNPTTGEVQTDFHTLRDWKRAYTMETLLLDLRKEMATPANKKLRQPKEGETF |  | binds |
